Measurements reported in PMC8745424.

What was measured:
[1] = biological target: SARS-CoV-2 S-protein RBD (expressed in P. pastoris) (SARS-CoV-2 (Wuhan-type)) (UniProt P0DTC2); test: BLI; settings: BLI (BLItz, streptavidin sensors, immobilized aptamer 200 nM; RBD 50-200 nM): PBS, 0.55 mM MgCl2, 0.1 mg/mL BSA, 0.002% Tween-20, room temperature …
[2] = biological target: SARS-CoV-2 S-protein RBD (expressed in CHO cells) (SARS-CoV-2 (Wuhan-type)) (UniProt P0DTC2); test: BLI; settings: BLI (BLItz, streptavidin sensors, […]; RBD 50-200 nM): PBS, 0.55 mM MgCl2, 0.1 mg/mL BSA, 0.002% Tween-20, room temperature; binding-buffer pH not stated

ATCCAGAGTGACGCAGCACTGCGTAGGCGCGGCCAATGTGTAGGATTGCTCAGGTCTGCTGGACACGGTGGCTTAGTTTTTTTTTTT [CoV2-RBD-3-Biotin]
Kd [1]: 2 nM | Kd [2]: 24 nM

ATCCAGAGTGACGCAGCAGGACTGCTTAGGATTGCGAAGCTGAGGAGCTCCCCCGCCTTGGACACGGTGGCTTAGTTTTTTTTTTT [CoV2-RBD-5-Biotin]
Kd [1]: 1.2 nM | Kd [2]: 26 nM

ATCCAGAGTGACGCAGCAGTAGGGGGATTGGCTCCAGGGCCTGGCTGACGGTTGCACGTGGACACGGTGGCTTAGTTTTTTTTTTT [CoV2-RBD-6-Biotin]
Kd [1]: 1 nM | Kd [2]: 10 nM

ATCCAGAGTGACGCAGCATCGAGTGGTGGGCTGGTCGGGTTTGGATTCCCTTAGATGCTGGACACGGTGGCTTAGTTTTTTTTTTT [CoV2-RBD-2-Biotin]
Kd [1]: 10 nM | Kd [2]: 4.3 nM

ATCCAGAGTGACGCAGCATTTCATCGGGTCCAAAAGGGGCTGCTCGGGATTGCGGATATGGACACGTTTTTTTTTTT [CoV2-RBD-4-Biotin]
Kd [1]: 5.5 nM | Kd [2]: 21 nM

CAGCACCGACCTTGTGCTTTGGGAGTGCTGGTCCAAGGGCGTTAATGGACATTTTTTTTTT [CoV2-RBD-1C-Biotin]
Kd [1]: 1.5 nM | Kd [2]: 27 nM

TTTTTTTTTTATCCAGAGTGACGCAGCACTGCGTAGGCGCGGCCAATGTGTAGGATTGCTCAGGTCTGCTGGACACGGTGGCTTAGT [Biotin-CoV2-RBD-3]
Kd [1]: 1.4 nM | Kd [2]: 40 nM

TTTTTTTTTTATCCAGAGTGACGCAGCAGGACTGCTTAGGATTGCGAAGCTGAGGAGCTCCCCCGCCTTGGACACGGTGGCTTAGT [Biotin-CoV2-RBD-5]
Kd [2]: 22 nM

TTTTTTTTTTATCCAGAGTGACGCAGCAGTAGGGGGATTGGCTCCAGGGCCTGGCTGACGGTTGCACGTGGACACGGTGGCTTAGT [Biotin-CoV2-RBD-6]
Kd [1]: 3.5 nM | Kd [2]: 29 nM

TTTTTTTTTTATCCAGAGTGACGCAGCATCGAGTGGTGGGCTGGTCGGGTTTGGATTCCCTTAGATGCTGGACACGGTGGCTTAGT [Biotin-CoV2-RBD-2]
Kd [2]: 17 nM

TTTTTTTTTTATCCAGAGTGACGCAGCATTTCATCGGGTCCAAAAGGGGCTGCTCGGGATTGCGGATATGGACACGT [Biotin-CoV2-RBD-4]
Kd [1]: 14 nM | Kd [2]: 18 nM

TTTTTTTTTTCAGCACCGACCTTGTGCTTTGGGAGTGCTGGTCCAAGGGCGTTAATGGACA [Biotin-CoV2-RBD-1C]
Kd [1]: 0.8 nM | Kd [2]: 5.8 nM
